Each sequence was assayed on Escherichia coli TOP10 (assay: shrunken log2 fold change of peptide-encoding DNA abundance (4.5 h post-induction vs induction); higher = less antimicrobial activity (less host growth inhibition)). Settings: time post-induction: 4.5 h; library: site-saturation at positions 5, 18, 19, 20.
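Further: peptides expressed intracellularly from a pBAD plasmid library in pooled LB shake-flask culture, induced with 0.3% L-arabinose, DNA abundance read by NGS, three biological replicates, DESeq2 with apeglm shrinkage.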

| Sequence | shrunken log2 fold change |
| --- | --- |
| RRIRDRPPRLPRPRPRPCCTPRP | 0.149 |
| RRIRARPPRLPRPRPRPADRPRP | 0.256 |
| RRIRTRPPRLPRPRPRPVANPRP | 0.133 |
| RRIRSRPPRLPRPRPRPKGYPRP | 0.00982 |
| RRIRMRPPRLPRPRPRPYSEPRP | 0.171 |
| RRIRSRPPRLPRPRPRPSLTPRP | -0.138 |
| RRIRHRPPRLPRPRPRPLDEPRP | -0.0217 |
| RRIRGRPPRLPRPRPRPGSCPRP | 1.03 |
| RRIRDRPPRLPRPRPRPMCGPRP | 1.12 |
| RRIRLRPPRLPRPRPRPTGGPRP | 0.621 |
| RRIRDRPPRLPRPRPRPQYQPRP | -0.156 |
| RRIRMRPPRLPRPRPRPIAWPRP | 0.201 |
| RRIRSRPPRLPRPRPRPALDPRP | 0.137 |
| RRIRQRPPRLPRPRPRPSDFPRP | -0.128 |
| RRIRWRPPRLPRPRPRPIPNPRP | -0.262 |
| RRIRDRPPRLPRPRPRPRLLPRP | 0.146 |
| RRIRNRPPRLPRPRPRPLPNPRP | -0.0288 |
| RRIRFRPPRLPRPRPRPCTWPRP | -0.0991 |
| RRIRYRPPRLPRPRPRPASVPRP | -0.256 |
| RRIRLRPPRLPRPRPRPGEPPRP | -0.0262 |
| RRIRCRPPRLPRPRPRPVCSPRP | -0.0747 |
| RRIRTRPPRLPRPRPRPMIQPRP | -0.146 |
| RRIRHRPPRLPRPRPRPHKFPRP | -0.636 |
| RRIRMRPPRLPRPRPRPHRIPRP | 0.0956 |
| RRIRKRPPRLPRPRPRPIPAPRP | 0.945 |

| Sequence | shrunken log2 fold change |
| --- | --- |
| RRIRGRPPRLPRPRPRPDRQPRP | -0.11 |
| RRIRPRPPRLPRPRPRPVAMPRP | 0.0478 |
| RRIRRRPPRLPRPRPRPTPQPRP | 1.52 |
| RRIRARPPRLPRPRPRPWEWPRP | 0.0233 |
| RRIRCRPPRLPRPRPRPERDPRP | 0.325 |
| RRIRSRPPRLPRPRPRPPCYPRP | -0.145 |
| RRIRTRPPRLPRPRPRPNMPPRP | -0.0405 |
| RRIRDRPPRLPRPRPRPCAIPRP | 0.029 |
| RRIRIRPPRLPRPRPRPQGWPRP | -0.00188 |
| RRIRDRPPRLPRPRPRPPCFPRP | 0.35 |
| RRIRCRPPRLPRPRPRPGDIPRP | 0.161 |
| RRIRTRPPRLPRPRPRPKKQPRP | -0.15 |
| RRIRGRPPRLPRPRPRPATVPRP | 0.244 |
| RRIRNRPPRLPRPRPRPPEKPRP | 0.0323 |
| RRIRFRPPRLPRPRPRPVLRPRP | 0.113 |
| RRIRFRPPRLPRPRPRPNKLPRP | -0.615 |
| RRIRIRPPRLPRPRPRPHFMPRP | -0.685 |
| RRIRERPPRLPRPRPRPQNWPRP | -0.0518 |
| RRIRGRPPRLPRPRPRPFTQPRP | -0.0854 |
| RRIRKRPPRLPRPRPRPKDYPRP | -0.0531 |
| RRIRQRPPRLPRPRPRPGHAPRP | 0.116 |
| RRIRDRPPRLPRPRPRPTHLPRP | -0.175 |
| RRIRSRPPRLPRPRPRPGYRPRP | -0.0248 |
| RRIRLRPPRLPRPRPRPSSWPRP | -0.0958 |
| RRIRLRPPRLPRPRPRPHFDPRP | -0.212 |

| Sequence | shrunken log2 fold change |
| --- | --- |
| RRIRTRPPRLPRPRPRPVEDPRP | 0.0389 |
| RRIRARPPRLPRPRPRPIPWPRP | 0.313 |
| RRIRARPPRLPRPRPRPYCNPRP | -0.378 |
| RRIRHRPPRLPRPRPRPMCWPRP | -0.178 |
| RRIRKRPPRLPRPRPRPIHDPRP | 0.00115 |
| RRIRLRPPRLPRPRPRPKCVPRP | 0.0912 |
| RRIRKRPPRLPRPRPRPWVKPRP | -0.148 |
| RRIRLRPPRLPRPRPRPFIMPRP | -0.79 |
| RRIRLRPPRLPRPRPRPYMLPRP | -1.2 |
| RRIRHRPPRLPRPRPRPKDGPRP | 0.326 |
| RRIRMRPPRLPRPRPRPCQFPRP | 0.0126 |
| RRIRFRPPRLPRPRPRPDISPRP | -0.216 |
| RRIRDRPPRLPRPRPRPNYYPRP | -0.305 |
| RRIRTRPPRLPRPRPRPDMGPRP | -0.0558 |
| RRIRPRPPRLPRPRPRPQTTPRP | -0.161 |
| RRIRPRPPRLPRPRPRPGGVPRP | 0.567 |
| RRIRMRPPRLPRPRPRPAQDPRP | 0.376 |
| RRIRKRPPRLPRPRPRPQIDPRP | 0.00239 |
| RRIRWRPPRLPRPRPRPLLDPRP | 0.0164 |
| RRIRDRPPRLPRPRPRPLHQPRP | 0.302 |
| RRIRERPPRLPRPRPRPIDIPRP | -0.01 |
| RRIRKRPPRLPRPRPRPDRRPRP | 0.18 |
| RRIRPRPPRLPRPRPRPPCCPRP | -0.0155 |
| RRIRYRPPRLPRPRPRPLSRPRP | -0.155 |
| RRIRSRPPRLPRPRPRPSSAPRP | -0.0109 |
